Test results: article PMC9536601 (2022)

T1: Ad5 hexon, on wild-type human adenovirus type 5 virions (human adenovirus type 5, UniProt P04133 2-952)
T1 chain: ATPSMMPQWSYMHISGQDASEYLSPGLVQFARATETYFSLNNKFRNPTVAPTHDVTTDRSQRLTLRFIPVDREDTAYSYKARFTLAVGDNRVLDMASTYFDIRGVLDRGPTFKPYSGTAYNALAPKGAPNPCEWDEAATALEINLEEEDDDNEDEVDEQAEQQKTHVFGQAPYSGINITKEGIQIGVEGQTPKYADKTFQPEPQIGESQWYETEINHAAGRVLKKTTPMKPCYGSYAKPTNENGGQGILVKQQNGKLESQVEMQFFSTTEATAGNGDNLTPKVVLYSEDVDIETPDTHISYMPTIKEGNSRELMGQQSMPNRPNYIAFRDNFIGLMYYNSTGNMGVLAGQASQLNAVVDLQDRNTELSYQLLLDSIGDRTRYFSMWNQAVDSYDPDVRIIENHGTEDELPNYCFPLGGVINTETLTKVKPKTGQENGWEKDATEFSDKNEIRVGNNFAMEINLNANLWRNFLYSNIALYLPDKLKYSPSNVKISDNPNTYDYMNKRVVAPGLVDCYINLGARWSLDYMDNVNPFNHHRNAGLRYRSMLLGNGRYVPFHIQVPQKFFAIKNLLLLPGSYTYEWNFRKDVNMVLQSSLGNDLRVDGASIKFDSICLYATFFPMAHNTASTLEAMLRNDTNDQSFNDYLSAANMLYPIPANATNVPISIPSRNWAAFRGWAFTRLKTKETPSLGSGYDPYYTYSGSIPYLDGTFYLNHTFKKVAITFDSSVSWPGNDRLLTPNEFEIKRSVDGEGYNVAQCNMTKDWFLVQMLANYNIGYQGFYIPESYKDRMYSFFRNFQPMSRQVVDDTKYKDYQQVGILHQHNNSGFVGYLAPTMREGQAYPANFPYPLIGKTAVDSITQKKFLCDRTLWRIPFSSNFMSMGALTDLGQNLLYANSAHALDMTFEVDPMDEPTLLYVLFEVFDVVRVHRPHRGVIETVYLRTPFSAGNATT

T2: Ad1 hexon, on wild-type human adenovirus type 1 virions (human adenovirus type 1)
T2 chain: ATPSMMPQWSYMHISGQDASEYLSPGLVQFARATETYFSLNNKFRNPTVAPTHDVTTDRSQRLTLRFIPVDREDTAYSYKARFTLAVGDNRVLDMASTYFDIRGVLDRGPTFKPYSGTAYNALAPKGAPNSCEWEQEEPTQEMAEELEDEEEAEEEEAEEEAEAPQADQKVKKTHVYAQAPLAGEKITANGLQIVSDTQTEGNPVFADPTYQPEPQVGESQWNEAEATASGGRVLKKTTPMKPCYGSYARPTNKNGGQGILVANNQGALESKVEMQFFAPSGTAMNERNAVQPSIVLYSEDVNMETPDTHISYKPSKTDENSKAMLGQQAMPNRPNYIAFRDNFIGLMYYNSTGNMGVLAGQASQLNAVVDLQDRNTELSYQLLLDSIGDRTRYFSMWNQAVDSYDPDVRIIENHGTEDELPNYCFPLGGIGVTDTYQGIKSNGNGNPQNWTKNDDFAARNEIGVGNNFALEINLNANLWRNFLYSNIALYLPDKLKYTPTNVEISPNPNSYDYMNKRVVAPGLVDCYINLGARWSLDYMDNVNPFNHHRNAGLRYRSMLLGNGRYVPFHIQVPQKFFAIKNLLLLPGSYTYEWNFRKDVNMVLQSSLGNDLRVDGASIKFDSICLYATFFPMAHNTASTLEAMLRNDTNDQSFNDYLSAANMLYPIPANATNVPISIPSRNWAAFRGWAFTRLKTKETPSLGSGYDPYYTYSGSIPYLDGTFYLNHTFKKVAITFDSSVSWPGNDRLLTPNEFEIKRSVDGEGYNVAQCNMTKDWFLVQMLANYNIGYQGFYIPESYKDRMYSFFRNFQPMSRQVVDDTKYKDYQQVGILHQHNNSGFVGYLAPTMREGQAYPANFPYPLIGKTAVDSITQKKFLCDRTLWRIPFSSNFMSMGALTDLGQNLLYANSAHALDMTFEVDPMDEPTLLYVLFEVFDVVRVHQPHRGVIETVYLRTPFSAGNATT

T3: Ad2 hexon, on wild-type human adenovirus type 2 virions (human adenovirus type 2, UniProt P03277 1-968)
T3 chain: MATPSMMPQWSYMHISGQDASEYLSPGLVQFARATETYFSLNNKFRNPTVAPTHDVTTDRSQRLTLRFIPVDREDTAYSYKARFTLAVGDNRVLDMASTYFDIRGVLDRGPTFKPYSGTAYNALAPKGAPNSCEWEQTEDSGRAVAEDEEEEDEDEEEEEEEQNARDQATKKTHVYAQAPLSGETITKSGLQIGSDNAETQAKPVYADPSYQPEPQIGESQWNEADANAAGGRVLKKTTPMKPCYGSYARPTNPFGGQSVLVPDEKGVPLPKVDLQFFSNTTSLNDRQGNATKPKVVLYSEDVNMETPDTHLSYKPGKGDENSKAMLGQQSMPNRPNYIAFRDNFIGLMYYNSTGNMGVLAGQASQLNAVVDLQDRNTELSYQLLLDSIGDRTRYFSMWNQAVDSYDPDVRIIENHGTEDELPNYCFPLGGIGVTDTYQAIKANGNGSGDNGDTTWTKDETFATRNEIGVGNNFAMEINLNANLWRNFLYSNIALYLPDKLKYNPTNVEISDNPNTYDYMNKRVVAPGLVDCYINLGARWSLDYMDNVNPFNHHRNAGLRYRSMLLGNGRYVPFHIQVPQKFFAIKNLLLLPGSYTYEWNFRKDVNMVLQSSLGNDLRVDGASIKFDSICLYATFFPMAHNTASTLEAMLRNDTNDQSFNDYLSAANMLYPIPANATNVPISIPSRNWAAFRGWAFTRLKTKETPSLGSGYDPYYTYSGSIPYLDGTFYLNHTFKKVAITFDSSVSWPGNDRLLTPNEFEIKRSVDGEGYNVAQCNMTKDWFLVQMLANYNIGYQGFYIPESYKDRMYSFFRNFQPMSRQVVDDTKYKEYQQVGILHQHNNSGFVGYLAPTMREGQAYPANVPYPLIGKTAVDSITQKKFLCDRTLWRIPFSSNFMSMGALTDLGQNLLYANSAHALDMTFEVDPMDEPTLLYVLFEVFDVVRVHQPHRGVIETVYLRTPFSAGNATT

B1: human coagulation factor X (natural protein)
chain 1: ANSFLEEMKKGHLERECMEETCSYEEAREVFEDSDKTNEFWNKYKDGDQCETSPCQNQGKCKDGLGEYTCTCLEGFEGKNCELFTRKLCSLDNGDCDQFCHEEQNSVVCSCARGYTLADNGKACIPTGPYPCGKQTLER
chain 2: SVAQATSSSGEAPDSITWKPYDAADLDPTENPFDLLDFNQTQPERGDNNLTRIVGGQECKDGECPWQALLINEENEGFCGGTILSEFYILTAAHCLYQAKRFKVRVGDRNTEQEEGGEAVHEVEVVIKHNRFTKETYDFDIAVLRLKTPITFRMNVAPACLPERDWAESTLMTQKTGIVSGFGRTHEKGRQSTRLKMLEVPYVDRNSCKLSSSFIITQNMFCAGYDTKQEDACQGDSGGPHVTRFKDTYFVTGIVSWGEGCARKGKYGIYTKVTAFLKWIDRSMKTRGLPKAKSHAPEVITSSPLK
modifications: gamma-carboxylated glutamate residues in the Gla domain
B2: mouse prothrombin (FII) (natural protein)
chain: not shown
modifications: gamma-carboxylated glutamate residues in the Gla domain
B3: bovine coagulation factor X (natural protein)
chain 1: ANSFLEEVKQGNLERECLEEACSLEEAREVFEDAEQTDEFWSKYKDGDQCEGHPCLNQGHCKDGIGDYTCTCAEGFEGKNCEFSTREICSLDNGGCDQFCREERSEVRCSCAHGYVLGDDSKSCVSTERFPCGKFTQGRS
chain 2: WAIHTSEDALDASELEHYDPADLSPTESSLDLLGLNRTEPSAGEDGSQVVRIVGGRDCAEGECPWQALLVNEENEGFCGGTILNEFYVLTAAHCLHQAKRFTVRVGDRNTEQEEGNEMAHEVEMTVKHSRFVKETYDFDIAVLRLKTPIRFRRNVAPACLPEKDWAEATLMTQKTGIVSGFGRTHEKGRLSSTLKMLEVPYVDRSTCKLSSSFTITPNMFCAGYDTQPEDACQGDSGGPHVTRFKDTYFVTGIVSWGEGCARKGKFGVYTKVSNFLKWIDKIMKARAGAAGSRGHSEAPATWTVPPPLPL
modifications: gamma-carboxylated glutamate residues in the Gla domain
B4: Ad6 hexon, on wild-type human adenovirus type 6 virions (natural protein)
chain: ATPSMMPQWSYMHISGQDASEYLSPGLVQFARATETYFSLNNKFRNPTVAPTHDVTTDRSQRLTLRFIPVDREDTAYSYKARFTLAVGDNRVLDMASTYFDIRGVLDRGPTFKPYSGTAYNALAPKGAPNSCEWEQNETAQVDAQELDEEENEANEAQAREQEQAKKTHVYAQAPLSGIKITKEGLQIGTADATVAGAGKEIFADKTFQPEPQVGESQWNEADATAAGGRVLKKTTPMKPCYGSYARPTNSNGGQGVMVEQNGKLESQVEMQFFSTSTNATNEVNNIQPTVVLYSEDVNMETPDTHLSYKPKMGDKNAKVMLGQQAMPNRPNYIAFRDNFIGLMYYNSTGNMGVLAGQASQLNAVVDLQDRNTELSYQLLLDSIGDRTRYFSMWNQAVDSYDPDVRIIENHGTEDELPNYCFPLGGIGITDTFQAVKTTAANGDQGNTTWQKDSTFAERNEIGVGNNFAMEINLNANLWRNFLYSNIALYLPDKLKYNPTNVEISDNPNTYDYMNKRVVAPGLVDCYINLGARWSLDYMDNVNPFNHHRNAGLRYRSMLLGNGRYVPFHIQVPQKFFAIKNLLLLPGSYTYEWNFRKDVNMVLQSSLGNDLRVDGASIKFDSICLYATFFPMAHNTASTLEAMLRNDTNDQSFNDYLSAANMLYPIPANATNVPISIPSRNWAAFRGWAFTRLKTKETPSLGSGYDPYYTYSGSIPYLDGTFYLNHTFKKVAITFDSSVSWPGNDRLLTPNEFEIKRSVDGEGYNVAQCNMTKDWFLVQMLANYNIGYQGFYIPESYKDRMYSFFRNFQPMSRQVVDDTKYKDYQQVGIIHQHNNSGFVGYLAPTMREGQAYPANVPYPLIGKTAVDSITQKKFLCDRTLWRIPFSSNFMSMGALTDLGQNLLYANSAHALDMTFEVDPMDEPTLLYVLFEVFDVVRVHQPHRGVIETVYLRTPFSAGNATT
B5: bovine prothrombin (FII) (natural protein)
chain: not shown
modifications: gamma-carboxylated glutamate residues in the Gla domain

Legend:
Experiment in all cases: SPR
[1] = target: T1, Ad5 hexon, on wild-type human …
[2] = target: T2, Ad1 hexon, on wild-type human …
[3] = target: B4
[4] = target: T3, Ad2 hexon, on wild-type human …
[5] = target: human prothrombin (FII) (human, UniProt P00734 44-622, gamma-carboxylated glutamate residues in the Gla domain)

Row | Binder | Kd [1] | Kd [2] | Kd [3] | Kd [4] | Kd [5]
1 | B1 | 0.74 nM | 220 nM | 28 nM |  | 
2 | B2 |  | 14 nM |  |  | 
3 | B3 |  | 160 nM | 100 nM | 73 nM | 
4 | B4 |  |  |  |  | 2.7 nM
5 | B5 |  | 37 nM |  |  | 
